The term Kd denotes the constant that tells how readily two partners part at equilibrium. Lower therefore signals tighter binding.

Drawing on publication PMC2828957 (Molecular Biology of the Cell, 2010), this text covers binding result and Kd for three molecules.

The chains are these.
B1: Sec62N-ΔN10-ΔC40 (human Sec62 residues 11-155, C-terminal hexa-histidine tag) (domain or fragment, UniProt Q99442 11-155, looked up)
chain: IQEVGEPSKEEKAVAKYLRFNCPTKSTNMMGHRVDYFIASKAVDCLLDSKWAKAKKGEEALFTTRESVVDYCNRLLKKQFFHRALKVMKMKYDKDIKKEKDKGKAESGKEEDKKSKKENIKDEKTKKEKEKKKDGEKEESKKEET
B3: human Sec62N (N-terminal domain of human Sec62, residues 1-195, C-terminal hexa-histidine tag) (domain or fragment, UniProt Q99442 1-195, looked up)
chain: MAERRRHKKRIQEVGEPSKEEKAVAKYLRFNCPTKSTNMMGHRVDYFIASKAVDCLLDSKWAKAKKGEEALFTTRESVVDYCNRLLKKQFFHRALKVMKMKYDKDIKKEKDKGKAESGKEEDKKSKKENIKDEKTKKEKEKKKDGEKEESKKEETPGTPKKKETKKKFKLEPHDDQVFLDGNEVYVWIYDPVHFK

In assay [1] the target is T1, GST-Sec63C (complete C-terminal domain of human Sec63, residues 210-760, N-terminal GST) (human, UniProt Q9UGP8 210-760).
T1 sequence (looked up): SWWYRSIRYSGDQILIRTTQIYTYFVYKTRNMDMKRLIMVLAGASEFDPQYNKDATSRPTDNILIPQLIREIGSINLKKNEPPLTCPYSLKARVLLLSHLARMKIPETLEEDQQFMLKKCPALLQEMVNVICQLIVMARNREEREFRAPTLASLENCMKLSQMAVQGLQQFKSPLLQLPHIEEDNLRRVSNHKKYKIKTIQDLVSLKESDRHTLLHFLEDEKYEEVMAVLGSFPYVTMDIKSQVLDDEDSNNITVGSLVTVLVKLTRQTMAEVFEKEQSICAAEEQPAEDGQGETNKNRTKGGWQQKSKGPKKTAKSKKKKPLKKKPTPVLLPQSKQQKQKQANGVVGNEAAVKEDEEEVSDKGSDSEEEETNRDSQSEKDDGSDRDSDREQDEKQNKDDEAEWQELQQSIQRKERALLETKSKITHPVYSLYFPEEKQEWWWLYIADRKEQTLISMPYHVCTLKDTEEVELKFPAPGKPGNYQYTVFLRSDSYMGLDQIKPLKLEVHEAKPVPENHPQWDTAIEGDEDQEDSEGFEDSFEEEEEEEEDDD
The assay is described as follows: pull-down.

The target in assay [2] is B3. The assay is described as follows: pull-down.
For assay [3], the target named is B1. Nature of the assay: pull-down.
The target of assay [4] is T1, GST-Sec63C (complete C-terminal domain …). Nature of the assay: SPR. For orientation: In SPR one partner is held on a chip, and binding of the other changes the refractive index at the surface.

Take B1: the binding result in assay [1] was “binds”.

B2: GST-Sec63C26 (C-terminal 26 amino acid residues of human Sec63, residues 734-760, N-terminal GST) (domain or fragment, UniProt Q9UGP8 734-760, looked up)
chain: EGDEDQEDSEGFEDSFEEEEEEEEDDD
Take B2: the binding result in assay [2] and in assay [3] was “binds” each time.

Molecule B3 came in with a Kd in assay [4] of 4.78 nM.
